The values below come from US20230293738A1 (Y MABS THERAPEUTICS, published 2023).

In assay [1] the target is T1, human 4Ig-B7H3 (B7H3-4Ig-His) (human, UniProt Q5ZPR3 29-466).
T1 construct: Recombinant His-tagged protein immobilised on a CM5 chip; also called 41g-B7H3; human 4Ig-B7-H3 (dominant isoform); not shown: His tag
T1 sequence: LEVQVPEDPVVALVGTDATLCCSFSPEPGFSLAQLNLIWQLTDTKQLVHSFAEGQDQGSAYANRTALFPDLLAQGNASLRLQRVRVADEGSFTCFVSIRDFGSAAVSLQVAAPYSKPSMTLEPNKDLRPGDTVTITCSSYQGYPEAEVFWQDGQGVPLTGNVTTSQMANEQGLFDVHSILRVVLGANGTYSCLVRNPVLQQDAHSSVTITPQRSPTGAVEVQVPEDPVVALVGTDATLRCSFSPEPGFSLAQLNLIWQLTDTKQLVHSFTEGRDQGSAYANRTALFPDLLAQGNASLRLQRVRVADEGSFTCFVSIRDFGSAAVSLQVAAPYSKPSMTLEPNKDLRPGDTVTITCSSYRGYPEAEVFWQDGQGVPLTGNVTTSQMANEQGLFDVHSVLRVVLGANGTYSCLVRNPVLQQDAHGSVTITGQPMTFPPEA
In words: SPR. As to the method: (§1) Both human B7H3 41g and 21g proteins were dissolved in PBS (Phosphate-Buffered Saline) to make 0.1 mg/ml stock solution and stored in −80° C. B7-H3 proteins were immobilized onto the CM5 sensor chip using Amine Coupling Kit. Both proteins were diluted to 10 ug/ml with 10 mM Sodium acetate, pH 5.0. […] A blank immobilized surface was used as a control
(§2) Binding Assays: [0143] 1. Antibodies were diluted in HBS-EP buffer (10 mM HEPES, 150 mM NaCl, 3 mM EDTA, 0.05% Surfactant P20, pH 7.4) at varying concentrations (25-50-100-200-400 nM) prior to analysis. […] 2. Samples (60 ul) were injected over the sensor surface at a flow rate of 30 ul/min over 2 min. [0145] 3. Following completion of the association phase, dissociation was monitored in HBS-EP buffer for 10 min at the same flow rate. […] 4. At the end of each cycle, the surface was regenerated using 10 mM NaOH at a flow rate of 50 ul/min over 2×15 sec.

Assay [2] addresses T2, human 2Ig-B7H3 (B7H3-2Ig-His) (human, UniProt Q5ZPR3 29-466).
T2 construct: Recombinant His-tagged protein immobilised on a CM5 chip; also called 21g-B7H3; B7H3-21g-His; not shown: His tag
T2 sequence: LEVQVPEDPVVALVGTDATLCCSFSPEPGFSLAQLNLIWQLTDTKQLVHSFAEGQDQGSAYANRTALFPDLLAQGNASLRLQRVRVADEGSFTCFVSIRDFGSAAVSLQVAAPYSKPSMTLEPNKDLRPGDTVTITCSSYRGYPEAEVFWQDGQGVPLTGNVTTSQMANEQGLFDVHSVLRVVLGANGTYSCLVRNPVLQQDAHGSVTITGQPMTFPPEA
Nature of the assay: SPR. As to the method: as §1, §2
For orientation: Surface plasmon resonance follows binding to a sensor surface in real time, without labels.

The target in assay [3] is T2, human 2Ig-B7H3 (B7H3-2Ig-His). In words: SPR, Biacore T200, 2Ig-B7H3-His on CM5 chip, 1:1 fit. As for the experimental part:
as §1, §2
(§3) The data were analyzed by the 1:1 fitting model and default parameter setting for the rate constants using the Biacore T200 Evaluation Software, and the apparent association on rate constant (kon, ka), dissociation off rate constant (koff, kd) and equilibrium dissociation constant (KD=kd/ka) were calculated.

Assay [4] shares this target. Nature of the assay: SPR; CHX-A''-DTPA conjugate, CAR 0.6, unlabeled.
The target in assay [5] is T1, human 4Ig-B7H3 (B7H3-4Ig-His). In words: SPR, Biacore T200, 4Ig-B7H3-His on CM5 chip, 1:1 fit. As for the experimental part: as §1, §2
Assay [6] concerns the target T2, human 2Ig-B7H3 (B7H3-2Ig-His). In words: SPR; CHX-A''-DTPA conjugate, CAR 1.4, labeled with cold 175Lu. As for the experimental part:
as §1, §2

For assay [7], the target named is T1, human 4Ig-B7H3 (B7H3-4Ig-His). In words: SPR. As for the experimental part:
as §1, §3
This is another data set of the same source.

Assay [8] addresses T2, human 2Ig-B7H3 (B7H3-2Ig-His). Nature of the assay: SPR. As for the experimental part: as §1, §3
This is another data set of the same source.

For assay [9] the target is unchanged. In words: SPR, Biacore T200, 2Ig-B7H3-His on CM5 chip, 1:1 fit. As for the experimental part:
as §1, §3
The source holds these as a separate data set.

The target of assay [10] is T1, human 4Ig-B7H3 (B7H3-4Ig-His). In words: SPR, Biacore T200, 4Ig-B7H3-His on CM5 chip, 1:1 fit. As for the experimental part:
as §1, §3
The source holds these as a separate data set.

Assay [11] concerns the target T2, human 2Ig-B7H3 (B7H3-2Ig-His). In words: SPR, Biacore T200, 2Ig-B7H3-His on CM5 chip, 1:1 fit; CHX-A''-DTPA conjugate, CAR 3.6, unlabeled.
The target is the same in assay [12]. Nature of the assay: SPR; CHX-A''-DTPA conjugate, CAR 3, labeled with cold 175Lu. As to the method:
as §1, §2

The target is the same in assay [13]. Nature of the assay: SPR; CHX-A''-DTPA conjugate, CAR 3.6, labeled with cold 175Lu. As to the method: as §1, §2
The target is the same in assay [14]. Nature of the assay: SPR, Biacore T200, 2Ig-B7H3-His on CM5 chip, 1:1 fit; DOTA conjugate, CAR 11.7, unlabeled.
Assay [15] shares this target. In words: SPR, Biacore T200, 2Ig-B7H3-His on CM5 chip, 1:1 fit; 127I-labeled 8H9, lot P76501A. As for the experimental part: as §1, §2
Assay [16] shares this target. Nature of the assay: SPR; 127I-labeled 8H9. As for the experimental part: as §1, §2
The target is the same in assay [17]. Nature of the assay: SPR, Biacore T200, 2Ig-B7H3-His on CM5 chip, 1:1 fit; CHX-A''-DTPA conjugate, CAR 6.1, unlabeled.

B1: 8H9 antibody conjugated with p-SCN-Bn-CHX-A″-DTPA, CAR 0.6 (antibody, mouse IgG1, kappa, V domains shown)
VH: QVQLQQSGAELVKPGASVKLSCKASGYTFTNYDINWVRQRPEQGLEWIGWIFPGDGSTQYNEKFKGKATLTTDTSSSTAYMQLSRLTSEDSAVYFCARQTTATWFAYWGQGTLVTVSA
VL: DIVMTQSPATLSVTPGDRVSLSCRASQSISDYLHWYQQKSHESPRLLIKYASQSISGIPSRFSGSGSGSDFTLSINSVEPEDVGVYYCQNGHSFPLTFGAGTKLELKR
modifications: p-SCN-Bn-CHX-A″-DTPA conjugated, CAR 0.6 per antibody; sites not stated
notes: Chelator conjugate, not metal-labelled; also called conj-CHX-A″-DTPA (CAR0.6)
One may read the Kd as the concentration at which binding is half-saturated. A higher Kd goes with weaker binding. B1: the Kd in [1] was 10.1 nM; in [3] it was 1.22 nM; in [4], 1.22 nM; in assay [5], 10.1 nM. Further, the t ½ was determined as 0.883 h in [1], 5.72 h in [2] and 0.883 h in assay [5]. Also, the “T ½” value in [3] stood at 5.72 h.

B2: 175Lu-DTPA-8H9-antibody (CAR1.4) (antibody, mouse IgG1, kappa, V domains shown)
VH: B1 VH
VL: B1 VL
modifications: p-SCN-Bn-CHX-A″-DTPA conjugated (CAR 1.4 per antibody), labelled with cold lutetium-175; sites not stated
In the case of B2, the Kd in assay [6] was less than 0.316 nM; in [7], 7.64 nM; in [9] it was 0.217 nM; in assay [10], 7.64 nM. The t ½ came to 1.26 h in assay [7], 28.1 h in [8], 28.1 h in assay [9] and 1.26 h in assay [10].

B3: 8H9 antibody conjugated with p-SCN-Bn-CHX-A″-DTPA, CAR 3.6 (antibody, mouse IgG1, kappa, V domains shown)
VH: B1 VH
VL: B1 VL
modifications: p-SCN-Bn-CHX-A″-DTPA conjugated, CAR 3.6 per antibody; sites not stated
notes: Chelator conjugate, not metal-labelled
B3: the Kd is 26.9 nM in assay [1], 26.9 nM in assay [5] and 9.46 nM in [11]. The t ½ in assay [1] was 0.508 h; in assay [2], 1.25 h; in [5] it was 0.508 h. Further, the “T ½” value in [3] was 1.25 h.

B4: 175Lu-DTPA-8H9-antibody (CAR3) (antibody, mouse IgG1, kappa, V domains shown)
VH: B1 VH
VL: B1 VL
modifications: p-SCN-Bn-CHX-A″-DTPA conjugated (CAR 3 per antibody), labelled with cold lutetium-175; sites not stated
Regarding B4, the Kd in [12] was determined as 1.8 nM; in assay [7], 16.2 nM; in assay [9], 1.8 nM; in assay [10], 16.2 nM. The t ½ in [7] was 0.811 h; in assay [8], 5.94 h; in assay [9] it was 5.94 h; in assay [10], 0.811 h.

B5: 175Lu-DTPA-8H9-antibody (CAR3.6) (antibody, mouse IgG1, kappa, V domains shown)
VH: B1 VH
VL: B1 VL
modifications: p-SCN-Bn-CHX-A″-DTPA conjugated (CAR 3.6 per antibody), labelled with cold lutetium-175; sites not stated
Turning to B5, the Kd stood at 18.5 nM in [7], 2.34 nM in [13], 2.34 nM in assay [9] and 18.5 nM in assay [10]. Also, the t ½ in [7] is 0.722 h; in [8], 5 h; in [9] it was 5 h; in assay [10], 0.722 h.

B6: 8H9 antibody conjugated with p-SCN-Bn-DOTA, CAR 11.7 (antibody, mouse IgG1, kappa, V domains shown)
VH: B1 VH
VL: B1 VL
modifications: p-SCN-Bn-DOTA conjugated, CAR 11.7 per antibody; sites not stated
notes: as for B3
For the molecule B6, the “T ½” value in assay [3] was found to be 3.72 h. Also, the Kd in [5] stood at 18.9 nM; in assay [14], 2.99 nM. In addition, the “t ½” value in assay [5] was 0.756 h.

B7: 127I-8H9-antibody P76501A (antibody, mouse IgG1, kappa, V domains shown)
VH: B1 VH
VL: B1 VL
modifications: labelled with iodine-127; sites not stated
Take B7: the equilibrium dissociation constant (Kd) is less than 0.0787 nM in assay [15], less than 0.0787 nM in assay [16], 0.666 nM in assay [7] and 0.666 nM in assay [10]. Moreover, the t ½ is 4.39 h in assay [7], 308 h in [8], 308 h in assay [9] and 4.39 h in assay [10].

B8: 8H9 antibody conjugated with p-SCN-Bn-CHX-A″-DTPA, CAR 6.1 (antibody, mouse IgG1, kappa, V domains shown)
VH: B1 VH
VL: B1 VL
modifications: p-SCN-Bn-CHX-A″-DTPA conjugated, CAR 6.1 per antibody; sites not stated
notes: as for B3
Consider B8, for which the Kd in [1] is 53.8 nM; in [17] it was 24.3 nM; in [5], 53.8 nM. In addition, the values for the t ½ in assay [1], in assay [2] and in assay [5] were 0.215 h, 0.394 h and 0.215 h, respectively. In addition, the “T ½” value in assay [3] is 0.394 h.
